Positions count from the first letter of the chain named. Values belong to the binder of their own block, whether it stands above or below them.
Key:
human GPC3 on cells [1] = biological target: T1, human GPC3 on cells (human, UniProt P51654 25-554); assay: FACS, Hep3B cells
T1 construct: whole, on cells; over-expressed on CHOK1 cells or endogenous on HEPG2, Hep3B and Huh-7 hepatocellular carcinoma cells; the cell line is named under assay; also called GPC3-CHOK1 cells; human GPC3 over-expressed CHOK1 cells
Protocol: (§1) Cell-based binding: FACS was used to evaluate the binding activity of 52H5D3B8, 52H5D3B8-6 # chimeric mAbs and GC33 antibody on human GPC3 over-expressed CHOK1 cells, Hep3B cells and Huh-7 cells.
(§2) Briefly, GPC3-CHOK1 cells, Hep3B cells or Huh-7 cells were firstly incubated with Fc blocking reagent at 4° C. for 15 mins. Cells were washed by FACS buffer and divided to each well with 3-fold serially diluted 52H5D3B8, 52H5D3B8-6 # chimeric mAbs or GC33 antibody starting at 30 μg/mL at 4° C. for 60 mins. Cells were washed by FACS buffer and fixed with 2% PFA at RT for 15 mins. […] Samples were washed twice with FACS buffer.

human GPC3 on cells [2] = biological target: T1, human GPC3 on cells; assay: FACS, Huh-7 cells
Protocol: as §1, §2

human GPC3 on cells [3] = biological target: T1, human GPC3 on cells; assay: FACS, HEPG2 cells
Protocol: (§3) To evaluate the antigen binding property, the humanized antibodies were analyzed for their binding to human GPC3 over-expressed CHOK1 cells, HEPG2 cells, Hep3B cells and Huh-7 cells by FACS. Briefly, GPC3-CHOK1 cells, HEPG2 cells, Hep3B cells and Huh-7 cells were firstly incubated with Fc blocking reagent at 4° C. for 15 mins. Cells were washed by FACS buffer and divided to each well with 4-fold serially diluted humanized antibodies starting at 10 μg/mL at 4° C. for 60 mins. Cells were washed by FACS buffer and fixed with 2% PFA at RT for 15 mins. […] The 16 humanized antibodies were separated into two plates.

human GPC3 on cells [4] = biological target: T1, human GPC3 on cells; assay: FACS, Hep3B cells; remark: listed apart in the source
Protocol: as §3

human GPC3 on cells [5] = biological target: T1, human GPC3 on cells; assay: FACS, Huh-7 cells; remark: listed apart in the source
Protocol: as §3

human GPC3 on cells [6] = biological target: T1, human GPC3 on cells; assay: FACS, HEPG2 cells; remark: listed apart in the source
Protocol: as §3

human GPC3 on cells [7] = biological target: T1, human GPC3 on cells; assay: FACS, Hep3B cells; remark: listed apart in the source
Protocol: as §3

human GPC3 on cells [8] = biological target: T1, human GPC3 on cells; assay: FACS, Huh-7 cells; remark: listed apart in the source
Protocol: as §3

human GPC3 on cells [9] = biological target: T1, human GPC3 on cells; assay: FACS, GPC3-CHOK1 cells
Protocol: Briefly, GPC3-CHOK1 cells were firstly incubated with Fc blocking reagent at 4° C. for 15 mins. Cells were washed by FACS buffer and divided to each well with 3-fold serially diluted 52H5D3B8, 52H5D3B8-1 #, 52H5D3B8-2 #, 52H5D3B8-3 #, 52H5D3B8-4 #, 52H5D3B8-5 #, 52H5D3B8-6 #, 52H5D3B8-7 #, 52H5D3B8-8 #, 52H5D3B8-9 #, 52H5D3B8-10 #, 52H5D3B8-11 #, 52H5D3B8-12 #, 52H5D3B8-13 #, 52H5D3B8-14 # and 52H5D3B8-15# chimeric mAbs starting at 30 μg/mL at 4° C. for 60 mins. Cells were washed by FACS buffer and fixed with 2% PFA at RT for 15 mins. […] Samples were washed twice with FACS buffer.

human GPC3 on cells [10] = biological target: T1, human GPC3 on cells; assay: FACS, GPC3-CHOK1 cells; remark: listed apart in the source
Protocol: as §1, §2

human GPC3 on cells [11] = biological target: T1, human GPC3 on cells; assay: FACS, GPC3-CHOK1 cells; remark: listed apart in the source
Protocol: as §3

human GPC3 on cells [12] = biological target: T1, human GPC3 on cells; assay: FACS, GPC3-CHOK1 cells; remark: listed apart in the source
Protocol: as §3

[13] = biological target: T2, human GPC3-his tag protein (human, UniProt P51654 25-559, limits assumed); assay: SPR Biacore 8K, mAb captured, affinity ranking
T2 construct: recombinant soluble antigen used as analyte in all Biacore runs; also called recombinant GPC3 protein; rhGPC3-His; not shown: His tag
Protocol: To evaluate antigen binding activity, the chimeric antibody's affinity was measured by Biacore 8K. A serial dilution of human GPC3-his tag protein was injected over captured chimeric antibody 52H5D3B8-6 #-VH+VL for 3 mins at a flow rate of 30 μl/min. The antigen was allowed to dissociate for 720 s. Among the multi detection doses, two concentrations with most close affinity to the chimeric antibody's affinity were chosen for the 16 humanized antibodies' affinity detection.

[14] = biological target: T2, human GPC3-his tag protein; assay: SPR Biacore 8K, mAb captured, one or two doses GPC3-his
Protocol: The binding of the optimized antibodies of 52H5D3B8 mAb to human GPC3-his was tested with Biacore using a capture method. A single dose or two doses of human GPC3-his tag protein was injected over captured antibody. All the experiments were carried out on a Biacore 8K. Data analysis was carried out using Biacore 8K evaluation software.

[15] = biological target: T2, human GPC3-his tag protein; assay: SPR Biacore, mAb captured on CM5, GPC3-his dilution series (full kinetics)
Protocol: The binding of the humanized antibodies to recombinant GPC3 protein (human GPC3-his tag) was tested by Biacore using a capture method. 52H5D3B8-6 #-V+VL, 52H5D3B8-6 #-VH1+VL1, 52H5D3B8-6 #-VH1+VL3, 52H5D3B8-6 #-V1+VL4, 52H5D3B8-6 #-VH2+VL4, 52H5D3B8-6 #-VH3+VL1, 52H5D3B8-6 #-VH3+VL3 mAbs were captured using CM5 sensor chip. A serial dilution of human GPC3-his tag protein was injected over captured antibody for 2 mins at a flow rate of […]. The antigen was allowed to dissociate for 360 s. All the experiments were carried out on a Biacore T200.

human GPC3 on cells [16] = biological target: T1, human GPC3 on cells; assay: FACS, HEPG2 cells; remark: listed apart in the source
Text: (§4) FACS was used to evaluate the binding activity of 52H5D3B8-6 #-VH1+VL1 and 52H5D3B8-6 #-VH2+VL3 with comparison to GC33 (Chugai Pharmaceutical) and Y035 (Carsgen Therapeutics, U.S. Patent Application US20190046659) on human GPC3 over-expressed CHOK1 cells and HEPG2 cells.

human GPC3 on cells [17] = biological target: T1, human GPC3 on cells; assay: FACS, GPC3-CHOK1 cells; remark: listed apart in the source
Text: as §4

human GPC3 on cells [18] = biological target: T1, human GPC3 on cells; assay: FACS, GPC3-CHOK1 cells; remark: listed apart in the source
Protocol: To evaluate the antigen binding property, the affinity maturated antibodies were analyzed for their binding to human GPC3 over-expressed CHOK1 cells by FACS as previously described.

human GPC3 on cells [19] = biological target: T1, human GPC3 on cells; assay: cell-based or functional assay
human GPC3 on cells [20] = biological target: T1, human GPC3 on cells; assay: cell-based or functional assay; remark: listed apart in the source

- EC50 (human GPC3 on cells [1]): 0.0982 µg/mL
- EC50 (human GPC3 on cells [2]): 0.0501 µg/mL
- EC50 (human GPC3 on cells [3]): 0.0452 µg/mL
- EC50 (human GPC3 on cells [4]): 0.0643 µg/mL
- EC50 (human GPC3 on cells [5]): 0.0347 µg/mL
- EC50 (human GPC3 on cells [6]): 0.0469 µg/mL
- EC50 (human GPC3 on cells [7]): 0.0664 µg/mL
- EC50 (human GPC3 on cells [8]): 0.0378 µg/mL
- EC50 (human GPC3 on cells [9]): 0.0601 µg/mL
- EC50 (human GPC3 on cells [10]): 0.0474 µg/mL
- EC50 (human GPC3 on cells [11]): 0.035 µg/mL
- EC50 (human GPC3 on cells [12]): 0.0389 µg/mL
- Kd [13]: 425 pM
- koff [13]: 0.000307 s⁻¹
- kon [13]: 721000 M⁻¹ s⁻¹
- Kd [14]: 368 pM
- koff [14]: 0.000289 s⁻¹
- kon [14]: 785000 M⁻¹ s⁻¹
- Kd [15]: 446 pM
- koff [15]: 0.000265 s⁻¹
- kon [15]: 595000 M⁻¹ s⁻¹
B1: 52H5D3B8-6# chimeric mAb (antibody, V domains shown)
VH: QVQLQQSGAELVRPGASVKLSCKALGYTFTDYEMHWVKQTPVHGLEWIGAIHPGSGGTAYNQKFKGKATLTADKFSSTGYMELSSLTSEDSAVYYCTRYYSYAYWGQGTLVTVSA
VL: DVVMTQTPLSLPVSLGDQASISCRSSQSLVHSNGNTYLQWYLQKPGQSPKLLIYKVSNRFSGVPDRFSGSGSGTDFILKISRVEAEDLGVYFCFQSIHVPYTFGGGTKLEIK
notes: CDR3 mutant of the 52H5D3B8 chimeric mAb (human IgG1); also called 52H5D3B8-6#-VH+VL

- EC50 (human GPC3 on cells [3]): 0.0438 µg/mL
- EC50 (human GPC3 on cells [4]): 0.0705 µg/mL
- EC50 (human GPC3 on cells [5]): 0.0384 µg/mL
- EC50 (human GPC3 on cells [16]): 354 pM
- EC50 (human GPC3 on cells [11]): 0.0411 µg/mL
- EC50 (human GPC3 on cells [17]): 344 pM
- EC50 (human GPC3 on cells [18]): 412 pM
- EC50 of ADCC signaling (Jurkat-hCD16a-NFAT luciferase reporter), HEPG2 cells (human GPC3 on cells [19]): 174 pM
- EC50 of ADCC signaling (Jurkat-hCD16a-NFAT luciferase reporter), Huh-7 cells (human GPC3 on cells [19]): 265 pM
- Kd [13]: 962 pM
- koff [13]: 0.000642 s⁻¹
- kon [13]: 668000 M⁻¹ s⁻¹
B2: 52H5D3B8-6#-VH2+VL3 (antibody, V domains shown)
VH: QVQLVQSGAEVKKPGASVKVSCKASGYTFTDYEMHWVRQAPGQGLEWIGAIHPGSGGTAYNQKFKGRVTMTADTSTSTVYMELSSLRSEDTAVYYCTRYYSYAYWGQGTLVTVSS
VL: B1 VL with V2I, P12S, S14T, L15P, D17Q, Q18P, I77T, L88V, F92Y
notes: humanized
- EC50 of ADCC cytotoxicity (primary NK cells, LDH), HEPG2 cells (human GPC3 on cells [20]): 104 pM
- EC50 of ADCC cytotoxicity (primary NK cells, LDH), Huh-7 cells (human GPC3 on cells [20]): 106 pM

Source: patent publication US20240409663A1 (CONCEPT TO MEDICINE BIOTECH, published 2024)
